Test results: article PMC13108567 (2026)

Key:
PD-1 biotinylated dimer = PD-1 biotinylated dimer (human, UniProt Q15116 25-288, biotin); assay: BLI
[1] = molecular target: human programmed cell death protein 1 on PD-1 hi transgenic Jurkat cells (human, UniProt Q15116 25-288); assay: FACS
human programmed cell death protein 1 on PD-1 hi transgenic Jurkat cells, sequence (Q15116 25-288): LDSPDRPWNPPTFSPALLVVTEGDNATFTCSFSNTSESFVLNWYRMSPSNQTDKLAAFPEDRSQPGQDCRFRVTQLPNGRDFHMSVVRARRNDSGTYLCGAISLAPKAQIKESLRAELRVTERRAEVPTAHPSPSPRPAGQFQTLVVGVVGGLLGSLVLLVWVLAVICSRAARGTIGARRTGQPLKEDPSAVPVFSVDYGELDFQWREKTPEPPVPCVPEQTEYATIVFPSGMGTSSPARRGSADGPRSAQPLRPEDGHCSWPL

PD-1 biotinylated dimer, sequence (Q15116 25-170): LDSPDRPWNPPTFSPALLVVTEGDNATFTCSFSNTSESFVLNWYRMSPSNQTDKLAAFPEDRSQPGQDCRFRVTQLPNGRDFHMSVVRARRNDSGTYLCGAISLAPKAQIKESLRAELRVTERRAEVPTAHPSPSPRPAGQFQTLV

Kd (PD-1 biotinylated dimer) [nM]	Binder	EC50 [1] [nM]
16	Fab of anti-PD-1 clone 135c139d6 (Fab, V domains shown) VH: EVQLVQSGAEVKKPGESLKISCKGSGYSFTNFYIHWVRQAPGQRLEWMGSIYPNYGDTAYNQKFKDRFVFSLDTSVSTAYLQISSLKAEDTAVYYCARGYSYAMDYWGQGTTVTVSS VL: DIQMTQSPSSVSASVGDRVTITCSASQGISGDLNWYQQKPGKAPKLLIYHTSSLHSGVPSRFSGSGSGTDFTLTISSLQPEDFATYYCQYYSKDLLTFGGGTKLEIK	42
10	scFv-His of anti-PD-1 clone 135c139d6 (scFv, V domains shown) VH: EVQLVQSGAEVKKPGESLKISCKGSGYSFTNFYIHWVRQAPGQRLEWMGSIYPNYGDTAYNQKFKDRFVFSLDTSVSTAYLQISSLKAEDTAVYYCARGYSYAMDYWGQGTTVTVSS VL: DIQMTQSPSSVSASVGDRVTITCSASQGISGDLNWYQQKPGKAPKLLIYHTSSLHSGVPSRFSGSGSGTDFTLTISSLQPEDFATYYCQYYSKDLLTFGGGTKLEIK	162
